Read-outs that look alike come from different tables or passages of the source.

Experiment [1] addresses IgG1 heavy chain with CH3 construct 69 (L351D, L368E) (human) [IgG part: P01857]. As to the kind of experiment: native MS of gel filtrated sample 1516:1337 (MF1516 on DE-side).
Experiment [2] deals with IgG1 heavy chain with CH3 construct 2 (K392D, K409D) (human) [IgG part: P01857]. The experiment in a line: native MS (peak height); transfection #9 of Table 24; crossed dimer B/69 with D/2.
The target in experiment [3] is IgG1 heavy chain with CH3 construct 69 (L351D, L368E) (human) [IgG part: P01857]. The experiment in a line: native MS; combination 12 co-expressed (A: VH MF1337, B: VH MF1122).
Experiment [4] concerns the target IgG1 heavy chain with CH3 construct 68 (T366K, L351K) (human) [IgG part: P01857]. As to the kind of experiment: batch test before the pK study; 1516:1337 (MF1516 on DE-side, MF1337 on KK-side).
The target in experiment [5] is IgG1 heavy chain with CH3 construct 69 (L351D, L368E) (human) [IgG part: P01857]. The experiment in a line: native MS (peak height); Tr. 2; AA = DE-DE homodimer of 1337-DE.
For experiment [6] the target is unchanged. The experiment in a line: native MS (peak height); Tr. 4; CC = DE-DE homodimer of 1025-DE.
For experiment [7] the target is unchanged. As to the kind of experiment: native MS; combination 3 co-expressed (A: VH MF1337, B: VH MF1122).
For experiment [8] the target is unchanged. As to the kind of experiment: SDS-PAGE of protein A-purified supernatant; construct expressed alone.
Experiment [9] has the same target. As to the kind of experiment: native MS (peak height); Tr. 6, 1:1:2; BB = 1122-KK with 1122-DE.
Experiment [10] concerns the target IgG1 heavy chain with CH3 construct 68 (T366K, L351K) (human) [IgG part: P01857]. The experiment in a line: native MS; combination 10 co-expressed (A: VH MF1337, B: VH MF1122).
Experiment [11] has as its target IgG1 heavy chain with CH3 construct 74 (L351D, Y349D) (human) [IgG part: P01857]. Described as above.
Experiment [12] addresses IgG1 heavy chain with CH3 construct 69 (L351D, L368E) (human) [IgG part: P01857]. The experiment in a line: native MS (peak height); Tr. 7, 2:1:1; AC = 1337-KK with 1025-DE.
Experiment [13] shares this target. The experiment in a line: native MS (peak height); Tr. 1, 2:1:1; AC = 1337-KK with 1025-DE.
Experiment [14] shares this target. The experiment in a line: native MS (peak height); Tr. 9, 1:1; 1337-KK with 1122-DE.
The target is the same in experiment [15]. As to the kind of experiment: native MS (peak height); Tr. 2, 2:1:1; AB = 1122-KK with 1337-DE.
Experiment [16] has as its target IgG1 heavy chain with CH3 construct 68 (T366K, L351K) (human) [IgG part: P01857]. As to the kind of experiment: native MS; combination 9 co-expressed (A: VH MF1337, B: VH MF1122).
The target in experiment [17] is IgG1 heavy chain with CH3 construct 75 (L351D, Y349D, R355D) (human) [IgG part: P01857]. The description is as above.
Experiment [18] addresses IgG1 heavy chain with CH3 construct 69 (L351D, L368E) (human) [IgG part: P01857]. The experiment in a line: native MS (peak height); Tr. 4, 1:1:2; BC = 1122-KK with 1025-DE.
The target is the same in experiment [19]. As to the kind of experiment: native MS (peak height); Tr. 4, 1:1:2; AC = 1337-KK with 1025-DE.
Experiment [20] has the same target. The experiment in a line: native MS (peak height); Tr. 11; by a transfection error 1025-DE stood with 1337-KK instead of 1122-KK.
For experiment [21] the target is unchanged. The experiment in a line: native MS (peak height); Tr. 8, 1:1:2; AC = 1337-KK with 1025-DE.
For experiment [22] the target is unchanged. The experiment in a line: native MS (peak height); transfection #11 of Table 24; AB = A/68 with B/69.
Experiment [23] shares this target. As to the kind of experiment: native MS (peak height); Tr. 10, 1:1; 1337-KK with 1025-DE.
The target is the same in experiment [24]. As to the kind of experiment: native MS (peak height); Tr. 2, 2:1:1; AC = 1025-KK with 1337-DE.
Experiment [25] has as its target IgG1 heavy chain with CH3 construct 68 (T366K, L351K) (human) [IgG part: P01857]. The experiment in a line: native MS; combination 12 co-expressed (A: VH MF1337, B: VH MF1122).
The target in experiment [26] is IgG1 heavy chain with CH3 construct 69 (L351D, L368E) (human) [IgG part: P01857]. The experiment in a line: native MS (peak height); Tr. 5, 2:1:1; AA = 1337-KK with 1337-DE.
In experiment [27] the target is IgG1 heavy chain with CH3 construct 68 (T366K, L351K) (human) [IgG part: P01857]. The experiment in a line: native MS; combination 11 co-expressed (A: VH MF1337, B: VH MF1122).
The target of experiment [28] is IgG1 heavy chain with CH3 construct 71 (L351D, Y349E) (human) [IgG part: P01857]. The description is as above.
Experiment [29] concerns the target IgG1 heavy chain with CH3 construct 69 (L351D, L368E) (human) [IgG part: P01857]. As to the kind of experiment: native MS (peak height); Tr. 5, 2:1:1; AB = 1337-KK with 1122-DE.
Experiment [30] has the same target. The experiment in a line: native MS (peak height); Tr. 7, 2:1:1; AA = 1337-KK with 1337-DE.
Experiment [31] shares this target. The experiment in a line: native MS (peak height); Tr. 3, 1:2:1; BC = 1025-KK with 1122-DE.
Experiment [32] has the same target. As to the kind of experiment: native MS (peak height); Tr. 6, 1:1:2; AB = 1337-KK with 1122-DE.
In experiment [33] the target is IgG1 heavy chain with CH3 construct 68 (T366K, L351K) (human) [IgG part: P01857]. The experiment in a line: native MS; combination 8 co-expressed (A: VH MF1337, B: VH MF1122).
The target in experiment [34] is IgG1 heavy chain with CH3 construct 72 (L351D, R355D) (human) [IgG part: P01857]. The experiment is described as above.
Experiment [35] deals with IgG1 heavy chain with CH3 construct 69 (L351D, L368E) (human) [IgG part: P01857]. As to the kind of experiment: native MS (peak height); Tr. 3, 1:2:1; AB = 1337-KK with 1122-DE.
The target is the same in experiment [36].
For experiment [37] the target is unchanged. As to the kind of experiment: native MS (peak height); Tr. 8, 1:1:2; CC = 1025-KK with 1025-DE.
The target of experiment [38] is IgG1 heavy chain with CH3 construct 68 (T366K, L351K) (human) [IgG part: P01857]. As to the kind of experiment: native MS; combination 7 co-expressed (A: VH MF1337, B: VH MF1122).
In experiment [39] the target is IgG1 heavy chain with CH3 construct 63 (L351D) (human) [IgG part: P01857]. The description is as above.
The target of experiment [40] is IgG1 heavy chain with CH3 construct 68 (T366K, L351K) (human) [IgG part: P01857]. As to the kind of experiment: SDS-PAGE of protein A-purified supernatant; construct expressed alone.
Experiment [41] concerns the target IgG1 heavy chain with CH3 construct 69 (L351D, L368E) (human) [IgG part: P01857]. The experiment in a line: native MS (peak height); Tr. 1, 2:1:1; AB = 1337-KK with 1122-DE.

Take “IgG1 heavy chain with CH3 construct 69 (L351D, L368E) (from UniProt P01857-1)”: in experiment [1], the percent of species in the sample was 2%. Also, the percent of species in the mixture in [2] worked out at 3%. In addition, the % BB found in experiment [3] and in experiment [7] was 0% throughout. Besides, the percent bispecific IgG in experiment [4] is more than 90%. The Observed species (%) in experiment [5] stood at 6%; in experiment [6] it was 1%. Further, the % IgG in experiment [8] worked out at 83.7%. Further, in experiment [8], the % half molecule stood at 16.3%.

With “IgG1 heavy chain with CH3 construct 68 (T366K, L351K) (from UniProt P01857-1)”, the Observed species (%) in [9] is 25%; in [12], 54%; in experiment [13] it was 57%; in [14] it was more than 98%; in experiment [15], 40%; in [18] it was 33%. Besides, the Observed species (%) was 66% in [19]; more than 98% in experiment [20]; 60% in experiment [21]; more than 98% in [23]; 54% in experiment [24]; 57% in experiment [26]. The Observed species (%) in experiment [29] was 43%; in experiment [30], 46%; in [31] it was 46%; in [32], 75%; in experiment [35], 54%; in [37] it was 40%. The substance further yielded an Observed species (%) in experiment [41] of 43%. In addition, the % AA found stood at 1% in [10]; 1% in experiment [16]; 0% in [25]; 1% in [27]; 0% in [33]; 0% in experiment [38]. Also, the % AB found in [11] was 95%; in [17], 93%; in [3], 92%; in experiment [28], 95%; in experiment [34], 79%; in experiment [39], 77%. The percent of species in the mixture in experiment [22] worked out at 33%; in experiment [36] it was 30%. The substance further registered a % IgG in [40] of 34.7%. The same substance returned a % half molecule in experiment [40] of 65.3%.

The values above are taken from patent publication US20150139996A1.
